Measurements reported in paper PMC12663309.

Molecular target: NEK7-mut (NEK7 with deletion of the binding sites) (UniProt Q8TDX7)
Assay: SPR; Biacore T200; NEK7 or NEK7-mut immobilised by amine coupling; SDHB flowed at different concentrations; 1:1 Langmuir binding model

Chain of NEK7-mut (NEK7 with deletion of the binding sites) (Q8TDX7 whole entry, stated change not applied): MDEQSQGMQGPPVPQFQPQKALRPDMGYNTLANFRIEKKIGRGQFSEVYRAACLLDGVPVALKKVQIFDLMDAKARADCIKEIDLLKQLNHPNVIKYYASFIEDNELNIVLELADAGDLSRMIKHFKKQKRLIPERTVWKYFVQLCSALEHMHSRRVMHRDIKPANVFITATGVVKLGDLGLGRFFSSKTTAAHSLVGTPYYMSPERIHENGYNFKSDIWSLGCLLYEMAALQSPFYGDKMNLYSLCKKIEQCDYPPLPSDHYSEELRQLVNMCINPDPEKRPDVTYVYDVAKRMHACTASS

Kd: 4.75 µM
B1: human SDHB recombinant protein (Ag29868, Proteintech) (natural protein)
chain: AQTAAATAPRIKKFAIYRWDPDKAGDKPHMQTYEVDLNKCGPMVLDALIKIKNEVDSTLTFRRSCREGICGSCAMNINGGNTLACTRRIDTNLNKVSKIYPLPHMYVIKDLVPDLSNFYAQYKSIEPYLKKKDESQEGKQQYLQSIEEREKLDGLYECILCACCSTSCPSYWWNGDKYLGPAVLMQAYRWMIDSRDDFTEERLAKLQDPFSLYRCHTIMNCTRTCPKGLNPGKAIAEIKKMMATYKEKKASV
